Residue numbers refer to the chain shown, from its start.
System: serine acetyltransferase
Assay: Serine acetyltransferase enzyme activity test with and without L-cysteine (inhibitor constant Ki, specific activity)
Assay type: biochemical, E. coli
Settings: for Ki: inhibitor L-cysteine
Excerpt: Any method which enables the activity of the serine acetyltransferase to be determined in the presence of cysteine can be used for determining the cysteine sensitivity of this enzyme. For example, the serine acetyltransferase activity can be determined using the method described by Kredich and Tomkins, J. Biol. Chem. 241: 4955-4965 (1966). In this test, the enzyme test mixture contains the substrate, L-serine, and the cofactor, acetyl-coenzyme A. The reaction is started by adding enzyme and monitored, in a spectro photometer, by observing the decrease in absorption at 232 nm which is elicited by the cleavage of the thioester bond in the acetyl-coenzyme A.
The above-described enzyme test is suitable for determining the cysteine sensitivity of any serine acetyltransferase enzyme, including the enzymes which have a modified carboxyl terminus. Inhibition of the serine acetyltransferase activity is tested in the presence of differing concentrations of L-cysteine in the reaction mixture. The catalytic activity of the different serine acetyltransferase enzymes is determined in the presence and absence of L-cysteine, and the inhibitor constant, Ki, is ascertained from this (Kredich and Tomkins, J. Biol. Chem., 241, 4955-4965 (1966)).
In order to investigate the biochemical basis of the cysteine secretion of the revertants, the activity of the serine acetyltransferase was determined in vitro, and the ability of cysteine to inhibit the enzyme was measured. For the determination, use was made of S30 extracts (cell homogenates centrifuged at 30,000 g and 4° C. for 20 minutes) of the selected revertants, the starting strains and the comparison strain, E. coli W3110 (ATTC 27325).
The biochemical parameters such as enzyme activity and inhibitor constant, Ki, were determined in an analogous manner to that described in Example 1.
The plasmids resulting from this cloning were designated pACYC184/cysE-Del in accordance with the extent of their deletion (cf. FIG. 9 for the plasmid map). Determination of the enzymic activity and the inhibitor constant, Ki, and also the cross-feeding test, were carried out in analogy with the description in Example 1. DNA sequence analysis was used to confirm that the deletions had been correctly introduced.
Determination of the enzymic activity and of the inhibitor constant Ki, and also the cross-feeding test, were carried out in analogy with the description in Example 1.

[1] = Table 1b, carboxyterminal deletions
[2] = Table 6, carboxyterminal deletions
[3] = Table 1a, 1 mM L-serine, 0.1 mM acetyl-CoA
[4] = Table 1a, serine acetyltransferase activity
[5] = Table 2, alleles from chemical mutagenesis

B1: cysE-Del257: carboxyterminal deletion of 16 amino acids, terminal Asp257 (protein, UniProt P0A9D4 1-257, looked up, fragment)
chain: MSCEELEIVWNNIKAEARTLADCEPMLASFYHATLLKHENLGSALSYMLANKLSSPIMPAIAIREVVEEAYAADPEMIASAACDIQAVRTRDPAVDKYSTPLLYLKGFHALQAYRIGHWLWNQGRRALAIFLQNQVSVTFQVDIHPAAKIGRGIMLDHATGIVVGETAVIENDVSILQSVTLGGTGKSGGDRHPKIREGVMIGAGAKILGNIEVGRGAKIGAGSVVLQPVPPHTTAAGVPARIVGKPDSDKPSMDMD
- spec. act. [1]: 0.394 μmol/min x mg
- Ki [1]: 7.5 µM
- Ki [2]: 7.5 µM

B2: cysE-Del248: carboxyterminal deletion of 25 amino acids, terminal Asp248 (protein, UniProt P0A9D4 1-248, looked up, fragment)
chain: MSCEELEIVWNNIKAEARTLADCEPMLASFYHATLLKHENLGSALSYMLANKLSSPIMPAIAIREVVEEAYAADPEMIASAACDIQAVRTRDPAVDKYSTPLLYLKGFHALQAYRIGHWLWNQGRRALAIFLQNQVSVTFQVDIHPAAKIGRGIMLDHATGIVVGETAVIENDVSILQSVTLGGTGKSGGDRHPKIREGVMIGAGAKILGNIEVGRGAKIGAGSVVLQPVPPHTTAAGVPARIVGKPD
- spec. act. [1]: 0.270 μmol/min x mg
- Ki [1]: 12.5 µM
- Ki [2]: 12.5 µM

B3: cysE-Del259: carboxyterminal deletion of 14 amino acids, terminal His259 (protein, UniProt P0A9D4 1-259, looked up, fragment)
chain: MSCEELEIVWNNIKAEARTLADCEPMLASFYHATLLKHENLGSALSYMLANKLSSPIMPAIAIREVVEEAYAADPEMIASAACDIQAVRTRDPAVDKYSTPLLYLKGFHALQAYRIGHWLWNQGRRALAIFLQNQVSVTFQVDIHPAAKIGRGIMLDHATGIVVGETAVIENDVSILQSVTLGGTGKSGGDRHPKIREGVMIGAGAKILGNIEVGRGAKIGAGSVVLQPVPPHTTAAGVPARIVGKPDSDKPSMDMDQH
- spec. act. [1]: 0.328 μmol/min x mg
- Ki [1]: 7.5 µM
- Ki [2]: 7.5 µM

B4: cysE-Del258: carboxyterminal deletion of 15 amino acids, terminal Gln258 (protein, UniProt P0A9D4 1-258, looked up, fragment)
chain: MSCEELEIVWNNIKAEARTLADCEPMLASFYHATLLKHENLGSALSYMLANKLSSPIMPAIAIREVVEEAYAADPEMIASAACDIQAVRTRDPAVDKYSTPLLYLKGFHALQAYRIGHWLWNQGRRALAIFLQNQVSVTFQVDIHPAAKIGRGIMLDHATGIVVGETAVIENDVSILQSVTLGGTGKSGGDRHPKIREGVMIGAGAKILGNIEVGRGAKIGAGSVVLQPVPPHTTAAGVPARIVGKPDSDKPSMDMDQ
- spec. act. [1]: 0.256 μmol/min x mg
- Ki [1]: 5 µM
- Ki [2]: 5 µM

B5: cysE-Del256: carboxyterminal deletion of 17 amino acids, terminal Met256 (protein, UniProt P0A9D4 1-256, looked up, fragment)
chain: MSCEELEIVWNNIKAEARTLADCEPMLASFYHATLLKHENLGSALSYMLANKLSSPIMPAIAIREVVEEAYAADPEMIASAACDIQAVRTRDPAVDKYSTPLLYLKGFHALQAYRIGHWLWNQGRRALAIFLQNQVSVTFQVDIHPAAKIGRGIMLDHATGIVVGETAVIENDVSILQSVTLGGTGKSGGDRHPKIREGVMIGAGAKILGNIEVGRGAKIGAGSVVLQPVPPHTTAAGVPARIVGKPDSDKPSMDM
- spec. act. [1]: 0.366 μmol/min x mg
- Ki [1]: 12.5 µM
- Ki [2]: 12.5 µM

B6: cysE-Del249: carboxyterminal deletion of 24 amino acids, terminal Ser249 (protein, UniProt P0A9D4 1-249, looked up, fragment)
chain: MSCEELEIVWNNIKAEARTLADCEPMLASFYHATLLKHENLGSALSYMLANKLSSPIMPAIAIREVVEEAYAADPEMIASAACDIQAVRTRDPAVDKYSTPLLYLKGFHALQAYRIGHWLWNQGRRALAIFLQNQVSVTFQVDIHPAAKIGRGIMLDHATGIVVGETAVIENDVSILQSVTLGGTGKSGGDRHPKIREGVMIGAGAKILGNIEVGRGAKIGAGSVVLQPVPPHTTAAGVPARIVGKPDS
- spec. act. [1]: 0.420 μmol/min x mg
- Ki [1]: 15 µM
- Ki [2]: 15 µM

B7: cysE-Del250: carboxyterminal deletion of 23 amino acids, terminal Asp250 (protein, UniProt P0A9D4 1-250, looked up, fragment)
chain: MSCEELEIVWNNIKAEARTLADCEPMLASFYHATLLKHENLGSALSYMLANKLSSPIMPAIAIREVVEEAYAADPEMIASAACDIQAVRTRDPAVDKYSTPLLYLKGFHALQAYRIGHWLWNQGRRALAIFLQNQVSVTFQVDIHPAAKIGRGIMLDHATGIVVGETAVIENDVSILQSVTLGGTGKSGGDRHPKIREGVMIGAGAKILGNIEVGRGAKIGAGSVVLQPVPPHTTAAGVPARIVGKPDSD
- spec. act. [1]: 0.405 μmol/min x mg
- Ki [1]: 20 µM
- Ki [2]: 20 µM

B8: cysEII: feedback-resistant serine acetyltransferase allele, Gly238->Ser238 (protein, UniProt P0A9D4 1-273, looked up, variant G238S)
Serine acetyltransferase: MSCEELEIVWNNIKAEARTLADCEPMLASFYHATLLKHENLGSALSYMLANKLSSPIMPAIAIREVVEEAYAADPEMIASAACDIQAVRTRDPAVDKYSTPLLYLKGFHALQAYRIGHWLWNQGRRALAIFLQNQVSVTFQVDIHPAAKIGRGIMLDHATGIVVGETAVIENDVSILQSVTLGGTGKSGGDRHPKIREGVMIGAGAKILGNIEVGRGAKIGAGSVVLQPVPPHTTAASVPARIVGKPDSDKPSMDMDQHFNGINHTFEYGDGI
- Ki [3]: 10 µM
- spec. act. [4]: 0.068 µmol/min/mg
- Ki [5]: 10 µM

B9: cysEIII: feedback-resistant serine acetyltransferase allele, Gly165->Asp165 (protein, UniProt P0A9D4 1-273, looked up, variant G165D)
Serine acetyltransferase: B8 Serine acetyltransferase with G165D, S238G
- Ki [3]: 10 µM
- spec. act. [4]: 0.030 µmol/min/mg
- Ki [5]: 10 µM
